In assay [1] the target is IL-23 alanine shave mutant M9 (human) (UniProt P29460). Kind of assay: cell-based or functional assay.
Assay [2] has as its target IL-23 alanine shave mutant M7 (human) (UniProt P29460). Kind of assay: cell-based or functional assay.
For assay [3], the target named is IL-23 alanine shave mutant M10 (human) (UniProt P29460). Nature of the assay: cell-based or functional assay.
Assay [4] deals with wild-type IL-23 (His-tagged p19 / non-tagged p40) (human) (UniProt P29460). Kind of assay: cell-based or functional assay.
Chain of wild-type IL-23 (His-tagged p19 / non-tagged p40) (human) (chain, as listed by the source limits assumed, chain 1 of 2): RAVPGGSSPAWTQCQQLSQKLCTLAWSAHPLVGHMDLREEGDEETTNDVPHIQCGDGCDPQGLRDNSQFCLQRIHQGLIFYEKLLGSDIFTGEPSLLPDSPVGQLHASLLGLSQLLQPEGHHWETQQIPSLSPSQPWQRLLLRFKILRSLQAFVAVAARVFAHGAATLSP
Chain of wild-type IL-23 (His-tagged p19 / non-tagged p40) (human) (P29460 23-328 limits assumed, chain 2 of 2): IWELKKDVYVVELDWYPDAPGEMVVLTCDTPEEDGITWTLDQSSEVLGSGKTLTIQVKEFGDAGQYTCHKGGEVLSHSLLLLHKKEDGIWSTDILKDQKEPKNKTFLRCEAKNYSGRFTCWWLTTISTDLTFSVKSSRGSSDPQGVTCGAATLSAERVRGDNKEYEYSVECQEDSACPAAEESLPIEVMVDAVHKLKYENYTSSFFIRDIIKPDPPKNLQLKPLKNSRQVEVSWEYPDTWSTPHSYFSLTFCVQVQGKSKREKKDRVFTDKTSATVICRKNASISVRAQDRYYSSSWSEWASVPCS
In assay [5] the target is IL-23 M54A (human) (UniProt P29460). Kind of assay: cell-based or functional assay.
Chain of IL-23 M54A (human) (chain, as listed by the source M54A M54A, chain 1 of 2): as the sequence (chain, as listed by the source limits assumed, chain 1 of 2) above, with M35A counted along it
Chain of IL-23 M54A (human) (P29460 23-328, chain 2 of 2): as the sequence (P29460 23-328 limits assumed, chain 2 of 2) above
Assay [6] addresses IL-23 D55A (human) (UniProt P29460). Kind of assay: cell-based or functional assay.
The target in assay [7] is IL-23 L116A (human) (UniProt P29460). Kind of assay: cell-based or functional assay.
Chain of IL-23 L116A (human) (chain, as listed by the source L116A L116A, chain 1 of 2): as the sequence (chain, as listed by the source limits assumed, chain 1 of 2) above, with L97A counted along it
Chain of IL-23 L116A (human) (P29460 23-328, chain 2 of 2): as the sequence (P29460 23-328 limits assumed, chain 2 of 2) above
In assay [8] the target is IL-23 D118A (human) (UniProt P29460). Kind of assay: cell-based or functional assay.
Chain of IL-23 D118A (human) (chain, as listed by the source D118A D118A, chain 1 of 2): as the sequence (chain, as listed by the source limits assumed, chain 1 of 2) above, with D99A counted along it
Chain of IL-23 D118A (human) (P29460 23-328, chain 2 of 2): as the sequence (P29460 23-328 limits assumed, chain 2 of 2) above
In assay [9] the target is IL-23 E112A (human) (UniProt P29460). Nature of the assay: cell-based or functional assay.
Chain of IL-23 E112A (human) (chain, as listed by the source E112A E112A, chain 1 of 2): as the sequence (chain, as listed by the source limits assumed, chain 1 of 2) above, with E93A counted along it
Chain of IL-23 E112A (human) (P29460 23-328, chain 2 of 2): as the sequence (P29460 23-328 limits assumed, chain 2 of 2) above
Assay [10] has as its target IL-23 H53A (human) (UniProt P29460). Nature of the assay: cell-based or functional assay.
The target in assay [11] is wild-type IL-23 (His-tagged p19 / non-tagged p40) (human) (UniProt P29460). Nature of the assay: cell-based or functional assay. The source holds these as a separate data set.
The target of assay [12] is IL-23 alanine shave mutant M5 (human) (UniProt P29460). Kind of assay: cell-based or functional assay.
Chain of IL-23 alanine shave mutant M5 (human) (chain, as listed by the source mutant limits assumed, form in doubt, chain 1 of 2): as the sequence (chain, as listed by the source limits assumed, chain 1 of 2) above, with H34A, M35A, E93A, L97A, D99A counted along it
Chain of IL-23 alanine shave mutant M5 (human) (P29460 23-328 limits assumed, stated change not applied, form in doubt, chain 2 of 2): as the sequence (P29460 23-328 limits assumed, chain 2 of 2) above
Assay [13] has as its target IL-23 M54A (human) (UniProt P29460). Nature of the assay: SPR (Biacore T100), antibody captured by protein A.
For assay [14], the target named is IL-23 D55A (human) (UniProt P29460). Nature of the assay: SPR (Biacore T100), antibody captured by protein A.
Chain of IL-23 D55A (human) (chain, as listed by the source D55A D55A, chain 1 of 2): as the sequence (chain, as listed by the source limits assumed, chain 1 of 2) above, with D36A counted along it
Chain of IL-23 D55A (human) (P29460 23-328, chain 2 of 2): as the sequence (P29460 23-328 limits assumed, chain 2 of 2) above
Assay [15] has as its target IL-23 alanine shave mutant M9 (human) (UniProt P29460). Kind of assay: SPR (Biacore T100), antibody captured by protein A. A general note: SPR reads the build-up and loss of mass on a sensor chip optically.
Assay [16] addresses IL-23 alanine shave mutant M7 (human) (UniProt P29460). Nature of the assay: SPR (Biacore T100), antibody captured by protein A.
Assay [17] has as its target IL-23 alanine shave mutant M10 (human) (UniProt P29460). Nature of the assay: SPR (Biacore T100), antibody captured by protein A.
Assay [18] has as its target IL-23 L116A (human) (UniProt P29460). Nature of the assay: SPR (Biacore T100), antibody captured by protein A.
For assay [19], the target named is IL-23 D118A (human) (UniProt P29460). Kind of assay: SPR (Biacore T100), antibody captured by protein A.
Assay [20] addresses IL-23 alanine shave mutant M5 (human) (UniProt P29460). Nature of the assay: SPR (Biacore T100), antibody captured by protein A.
For assay [21], the target named is IL-23 E112A (human) (UniProt P29460). Kind of assay: SPR (Biacore T100), antibody captured by protein A.
The target in assay [22] is IL-23 H53A (human) (UniProt P29460). Nature of the assay: SPR (Biacore T100), antibody captured by protein A.
Chain of IL-23 H53A (human) (chain, as listed by the source H53A H53A, chain 1 of 2): as the sequence (chain, as listed by the source limits assumed, chain 1 of 2) above, with H34A counted along it
Chain of IL-23 H53A (human) (P29460 23-328, chain 2 of 2): as the sequence (P29460 23-328 limits assumed, chain 2 of 2) above

Read-outs that look alike come from different tables or passages of the source.

Chain of IL-23 alanine shave mutant M7 (human) (chain, as listed by the source mutant limits assumed, form in doubt, chain 1 of 2): as the sequence (chain, as listed by the source limits assumed, chain 1 of 2) above, with W123A, E124A, T125A, Q126A, Q127A counted along it
Chain of IL-23 alanine shave mutant M7 (human) (P29460 23-328 limits assumed, change not shown, form in doubt, chain 2 of 2): as the sequence (P29460 23-328 limits assumed, chain 2 of 2) above
Chain of IL-23 alanine shave mutant M9 (human) (chain, as listed by the source mutant limits assumed, form in doubt, chain 1 of 2): as the sequence (chain, as listed by the source limits assumed, chain 1 of 2) above, with L97A, D99A, Q104A counted along it
Chain of IL-23 alanine shave mutant M9 (human) (P29460 23-328 limits assumed, change not shown, form in doubt, chain 2 of 2): as the sequence (P29460 23-328 limits assumed, chain 2 of 2) above
Chain of IL-23 alanine shave mutant M10 (human) (chain, as listed by the source mutant limits assumed, form in doubt, chain 1 of 2): as the sequence (chain, as listed by the source limits assumed, chain 1 of 2) above, with H34A, M35A, D36A, F144A counted along it
Chain of IL-23 alanine shave mutant M10 (human) (P29460 23-328 limits assumed, stated change not applied, form in doubt, chain 2 of 2): as the sequence (P29460 23-328 limits assumed, chain 2 of 2) above

For the substance Merck's IL-23 p19 mAb (7G10) (antibody), the IC50, pSTAT3 in BaF3/huIL-23Rα/huIL-12Rβ1 transfectants in assay [1] was determined as 260 pM; in assay [2], 310 pM; in [3], 350 pM; in assay [4], 380 pM; with IL-23 M54A (human) [5], 0.27 nM; with IL-23 D55A (human) [6], 0.18 nM. The IC50, pSTAT3 in BaF3/huIL-23Rα/huIL-12Rβ1 transfectants with IL-23 L116A (human) [7] was 0.24 nM; with IL-23 D118A (human) [8] it was 0.22 nM; in the assay with IL-23 E112A (human) [9], over 3 nM; with IL-23 H53A (human) [10], 0.19 nM; in assay [11], 0.18 nM.

Regarding “STELARA® (ustekinumab, IL-12/IL-23 p40 mAb) (antibody)”, the IC50, pSTAT3 in BaF3/huIL-23Rα/huIL-12Rβ1 transfectants stood at 67 pM in [1]; 59 pM in assay [2]; 71 pM in assay [3]; 62 pM in [12]; 79 pM in assay [4]; 0.081 nM with IL-23 M54A (human) [5]. Also, the IC50, pSTAT3 in BaF3/huIL-23Rα/huIL-12Rβ1 transfectants in the assay with IL-23 D55A (human) [6] amounted to 0.077 nM; in the assay with IL-23 L116A (human) [7], 0.054 nM; with IL-23 D118A (human) [8] it was 0.052 nM; with IL-23 E112A (human) [9], 0.033 nM; with IL-23 H53A (human) [10], 0.078 nM; in [11] it was 0.067 nM. Also, the ΔΔG with IL-23 M54A (human) [13] is 0.3 kcal/mol; in the assay with IL-23 D55A (human) [14], 0.5 kcal/mol; in assay [15] it was 0.1 kcal/mol; in assay [16], 0.1 kcal/mol; in [17], 0.3 kcal/mol; with IL-23 L116A (human) [18] it was 0.5 kcal/mol. In addition, the ΔΔG in the assay with IL-23 D118A (human) [19] was -0.3 kcal/mol; in assay [20], 0.1 kcal/mol; in the assay with IL-23 E112A (human) [21], 0.3 kcal/mol; with IL-23 H53A (human) [22], 0.3 kcal/mol.

For the origin of these results see patent US20180037645A1.
